The data set relates to T1, OsMYB55 (Oryza sativa).
T1 sequence: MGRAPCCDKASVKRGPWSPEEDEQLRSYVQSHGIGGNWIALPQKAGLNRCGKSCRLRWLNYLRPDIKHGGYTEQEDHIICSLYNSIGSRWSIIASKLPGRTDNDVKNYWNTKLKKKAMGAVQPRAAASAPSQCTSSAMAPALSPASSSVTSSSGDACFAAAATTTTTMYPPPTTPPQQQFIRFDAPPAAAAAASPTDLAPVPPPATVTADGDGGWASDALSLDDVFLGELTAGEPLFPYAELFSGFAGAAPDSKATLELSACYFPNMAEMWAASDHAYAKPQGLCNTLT
Description: cell_activity. The note with it: GUS transactivation in tobacco leaf vs empty vector; almost eight-fold.
Regarding OsGAD3 promoter 1.5-2 kb (GUS reporter), the activity was found to be 8 fold. In the case of OsGAT1 promoter 1.5-2 kb (GUS reporter) it was 8 fold. In the case of “OsGS1;2 promoter 1.5-2 kb (GUS reporter)” it was 8 fold.

The record behind these values is patent US20150218578.
